Target: APC-TMR (Mus musculus) (UniProt Q61315)
Test: TIRF microscopy in vitro motility assay

Q: For APC-TMR, Q61315 1-2845, which stoichiometry N is on record?
A: The stoichiometry N was 2.
